Measured values published in patent US12441811B2, “Compositions and methods for treating serpin B13 disorders” (REGENTS OF THE UNIVERSITY OF MINNESOTA, priority 2019, dated 2025).
“Also recorded” adds a separate entry of the source.

Legend:
[1] = tested on: catL; assay: catL protease activity in cell extract from pancreatic tissue in vitro; type: biochemical; conditions: mAb added to cell extract from pancreatic tissue in vitro
[2] = tested on: catL; conditions: previously shown by the applicant; cited from earlier work
[3] = tested on: Ngn3+ cells; assay: Genetic lineage tracing of Ngn3+ cells; type: in vivo, mouse
Description: FIGS. 18A-18C. Genetic tracing of Ngn3^+ cells in the pancreas of healthy and diabetic adult mice treated with anti-serpinB13 mAb. (A) The protocol of mice treatment with streptozotocin (STZ), tamoxifen (TAM), and anti-serpinB13 mAb (or control Ab). Eight-week old Ngn3Cre^ERTR26^YFP mice were induced into diabetes with STZ (150 mg/kg) and genetically labelled with YFP to mark Ngn3^+ cells, using TAM one day after injection of STZ, and an additional three times every other day thereafter. The antibodies were injected every day for 7 days at 100 μg/injection during the first week after STZ treatment. (B) Quantitative analysis by IF microscopy of YFP^+ cells expressing insulin at two weeks following induction of diabetes with STZ. […] (C) Representative microscopic IF images of YFP^+insulin^+ cells depicted in (B). Data are presented as the mean±SEM. Ordinary one-way ANOVA with Sidak test. Scale bars, 10 μm. NS, not significant. αB13, anti-serpinB13 mouse mAb.
Linage tracing. In the developmental studies, the Rosa26^EYFP females were initially set up for overnight breeding with NgnCre^ERT males and the following morning examined for the presence of a vaginal plug to indicate embryonic day E0.5. On embryonic day E10.5, E11.5, E12.5 and 13.5, anti-serpinB13 mAb (or control Ab) was injected i.p. at a dose of 50 μg per animal per day (total dose of 200 μg). […]

[4] = tested on: Ngn3+ endocrine progenitor cells; assay: Ngn3+ cells in embryonic pancreas after antibody injection into pregnant mice; type: in vivo, mouse; conditions: for number of Ngn3+ cells in the embryonic pancreas: pregnant mice i.p. 50 μg daily E10.5 through E13.5, E16.5 and birth, vs control Ab
Description: The control mouse mAb (clone TIB92) was from ATCC (Manassas, VA, USA). The recombinant human control Ab (cat. No 403502) was from BioLegend (San Diego, CA). In most of the experiments, anti-serpinB13 mAb (clone B29) or control mouse mAb was injected i.p. into pregnant female mice at 50 μg for four consecutive days, starting at gestational day E10.5 (total dose of 200 μg). In the lineage tracing experiments in adult mice, B29 was injected i.p. for 7 days at 100 μg/injection during the first week after STZ treatment (total dose of 700 μg).
Processing of pancreatic tissue for immunofluorescence microscopy. The pancreatic tissues were isolated and fixed either overnight (adult pancreases), or for one hour (embryonic pancreas explants), in 2% PFA (pH 7.4), followed by a two-step saturation process: first in a 30% sucrose solution in PBS and then in optimal cutting temperature (OCT) compound. After complete saturation, the tissues were imbedded in OCT using Cryomold and then snap frozen in an ethanol/dry ice bath. The OCT blocks were serially cut through the entire organ to obtain representative sections every 600 μm (6 to 8 sections per adult pancreas), 50 μm (12 to 14 sections per E16.5 embryonic pancreas), 35 μm (10 to 12 sections per E14.5 embryonic pancreas), or 15 μm (10 to 12 sections per E12.5 embryonic pancreas cultured for 1 to 3 days). For the embryonic linage tracing experiments, three largest sections were taken for the analysis. For all other experiments involving immunofluorescence microscopy, all obtained sections were analyzed.
The sections from the pancreases of embryos at age E14.5 and E16.5, and newborn pups (OP), were stained with anti-Ngn3 antibody to determine the total number of endocrine progenitors cells for all sections per explant combined (FIG. 9G, FIG. 17A). Alternatively, the sections representing the pancreases of embryos at age E12.5 (which are considerably smaller) were stained with both anti-Ngn3 and anti-CK19 antibodies to determine the fraction of CK19-positive area that was occupied by Ngn3− positive staining (FIGS. 9D, 10A, 10C, 12D, 12G, 12J and FIGS. 15A, 20B). The following formula was used to adjust for any differences in the pancreas size: (Ngn3^+ cell number/μm^2 of CK19^+ cells)×10^5.
Image analysis. […] To classify and quantify the images in unbiased fashion, we defined the following four classes for the analysis: Ngn3^+ cells, the clusters of cytokeratin 19^+ cells, the negatively stained areas, and background (e.g., the area outside of tissue sample). […] For the unbiased quantitative analysis of β-cells and islets in the whole pancreatic sections, Visiopharm Author module was trained to recognize insulin-positive β-cell clusters with diameter greater than 50 μm as well as negatively stained section area. […]

[5] = tested on: catL; assay: catL activity in vivo with activity-based probe ProSense 680; set-up: species or system mouse
Description: CatL has been implicated as a serpinB13 protease target. To examine the consequences of inhibiting serpinB13 using a mAb (clone B29), the catalytic activity of catL was measured. […] To measure catL activity in vivo, the activity-based probe, ProSense 680, was used. […] This increase was limited to the pancreas in wild-type Balb/c mice and was not observed in the liver, where serpinB13 is not expressed, or in the pancreas of catL-deficient Balb/c mice.

B1: B29: mouse monoclonal antibody to serpin B13, clone B29; heavy chain SEQ ID NO:14, kappa light chain SEQ ID NO:16 (antibody, V domains shown)
VH: QIQLVQSGPELKKPGETVKISCKASGYTFTTYGMSWVKQAPGKGLKWMGWINTYSGMPTYADDFKGRFAFSLETSATTAYLQINNLKNEDTATYFCARPLLGLDYWGQGTTLTVSS
VL: DIVMTQTPLSLSVTIGQPASISCKSSQSLLHSDGKTFLNWFLQRPGQSPKLLIYLVSKLESGIPDRFSGSGSGTDFTLKISRVEVEDLGVYYCLQHTHFPLTFGAGTKLEIK
With B1 as the molecule, how does the “protease activity of catL” value [1] read?
The value was “dose-dependently enhanced”.

And the “inhibitory properties of serpinB13” value [2]?
The value was “blocked”.

And the “transition from Ngn3 to insulin expression (YFP+insulin+ cells)” value ([3]; adult mice with STZ-induced pancreatic damage, 100 μg/injection for 7 days, listed as anti-serpinB13 mAb)?
Its value is “also observed; also recorded: increase”.

What about the “conversion of Ngn3+ cells to insulin-positive status” value ([3]; injection during gestation, YFP+insulin+ cells in embryos) of the same molecule?
Its value is “enhanced conversion”.

What about the “fractions of pancreatic microscopic sections positively stained with anti-insulin antibody” value ([4]; E16.5 embryos exposed in vivo vs control Ab) of the same molecule?
The value was “significantly higher fractions”.

What about the Ngn3 protein levels ([4]; Western blot, E16.5, pregnant mice i.p. 50 μg daily E10.5-E13.5) of the same molecule?
The Ngn3 protein levels was “robust increase”.

And the “number of Ngn3+ cells in the embryonic pancreas” value [4]?
Its value is “increased; also recorded: significant increase; also recorded: robust increase”.

What about the “number of Ngn3+ cells in the embryonic pancreas” value ([4]; listed as mAb) of the same molecule?
The value was “robust increase”.

And the “increase in catL activity in the pancreas of catL-deficient mice” value ([5]; catL-deficient Balb/c mice)?
The value was “not observed”.

What about the “increase in catL activity in the liver” value ([5]; liver, where serpinB13 is not expressed) of the same molecule?
Its value is “not observed”.

And the catL activity ([5]; summary statement, setting not specified)?
Its catL activity is “augmented”.

And the “catL activity in the intact pancreas” value ([5]; wild-type Balb/c mice, after injection of mAb, ProSense 680)?
Its value is “significant increase”.
